# Results from patent CN115925884A (SUN YAT SEN UNIV CANCER CENTER SUN YAT SEN UNIV AFFILIATED …, dated 2023).
# B1: 4F10抗体 (monoclonal antibody against EB virus gB antigen) (antibody, V domains shown)
# VH: QITLKESGAEMKKPGSSVKVSCKSSDTFKSYGIGWVRQAPGQGLEWMGGVIPVTGTRSYPQKFQGRVTITADESTSTAYMELSRLRSEDTAVYYCGRYMSYLYGMDVWGQGTTVTVSS
# VL: DIVLTQTPLSSPVTLGQPASISCRSSQGLVYSDGDTYLNWFQQRPGQSPRRLIYKVSNRDSGVPDRFSGSGSGTDFTLRISRVEAEDVGVYYCMQGAHWPPTFGQGTKLEIK
# notes: For flow cytometry the antibody carried a '403' fluorescent label; also called 抗体4F10
# Target: T1, EBV gB重组蛋白 (recombinant EB virus gB protein with C-terminal 6xHis tag) (EB病毒 (Epstein-Barr virus), UniProt P0C762 23-683, biotin label in the BLI assay (gB-Biotin), site not stated)
# T1 construct: Biotinylated for BLI; unlabelled in the Western blot; also called gB蛋白; gB抗原
# T1 chain: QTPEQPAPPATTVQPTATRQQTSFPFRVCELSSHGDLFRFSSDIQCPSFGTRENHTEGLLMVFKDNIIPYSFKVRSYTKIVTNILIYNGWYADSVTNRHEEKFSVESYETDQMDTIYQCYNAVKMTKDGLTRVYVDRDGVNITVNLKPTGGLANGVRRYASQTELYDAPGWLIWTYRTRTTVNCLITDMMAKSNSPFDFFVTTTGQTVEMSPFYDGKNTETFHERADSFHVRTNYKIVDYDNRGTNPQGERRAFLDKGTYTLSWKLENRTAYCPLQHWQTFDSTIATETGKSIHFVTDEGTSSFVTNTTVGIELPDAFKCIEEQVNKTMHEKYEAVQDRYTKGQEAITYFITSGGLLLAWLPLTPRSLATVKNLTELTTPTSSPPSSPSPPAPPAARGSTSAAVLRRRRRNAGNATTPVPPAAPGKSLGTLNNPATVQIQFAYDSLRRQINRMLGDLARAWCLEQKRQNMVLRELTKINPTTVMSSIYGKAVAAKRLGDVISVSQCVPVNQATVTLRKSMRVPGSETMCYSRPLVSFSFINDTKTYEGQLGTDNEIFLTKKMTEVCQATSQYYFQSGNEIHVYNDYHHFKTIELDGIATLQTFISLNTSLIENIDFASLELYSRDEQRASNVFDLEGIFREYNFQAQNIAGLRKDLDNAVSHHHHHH
# Test: BLI, biotinylated gB on SA biosensor, 0-200 nM antibody in solution
binder,measurement,value
B1,Kd,1 pM
